Measurements: US20240108738A1 (Bicycle, published 2024)
Numbered stars: 1 amine (or outer) side, 2 acyl side, 3 side chain; on linkers, the order of the positions; unused ones are H or OH. Bridge positions count the residues as written; N and C are the ends. Square brackets hold non-standard residues; d marks the D form. Ends that are not written are not given here. * marks the point of attachment. TATA = O=C(CC[*:1])N1CN(C(=O)CC[*:2])CN(C(=O)CC[*:3])C1; Tyr(2-F) = N[C@@H](Cc1ccc(O)cc1F)C(=O)O; Dopa = N[C@@H](Cc1ccc(O)c(O)c1)C(=O)O; hArg = N=C(N)NCCCC[C@H](N)C(=O)O; 4Pal = N[C@@H](Cc1ccncc1)C(=O)O; dCha = N[C@H](CC1CCCCC1)C(=O)O; Cba = N[C@@H](CC1CCC1)C(=O)O; Chg = N[C@H](C(=O)O)C1CCCCC1; dNle = CCCC[C@@H](N)C(=O)O; dNva = CCC[C@@H](N)C(=O)O; NMeA = CN[C@@H](C)C(=O)O; Pent4ynoyl = C#CCCC(=O)*

Target: T1, Human NKp46 Fc tag (Acro Biosystems, NC1-H5257) (human, UniProt O76036 22-255)
T1 construct: bought; also called Fc-tagged human NKp46
T1 sequence (O76036 22-255 limits assumed): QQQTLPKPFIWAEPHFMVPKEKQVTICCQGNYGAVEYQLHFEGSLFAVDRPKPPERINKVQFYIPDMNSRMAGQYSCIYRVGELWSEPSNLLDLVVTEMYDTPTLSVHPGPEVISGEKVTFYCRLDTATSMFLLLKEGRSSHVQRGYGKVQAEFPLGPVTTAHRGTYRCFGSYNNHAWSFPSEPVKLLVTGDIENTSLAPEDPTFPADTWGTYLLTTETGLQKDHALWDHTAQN
Experiment: SPR Method 1 and/or 2
Experimental: The SPR analysis was run at 25° C. and a flow rate of 50 μl/min with 60 seconds association and 200-400 seconds dissociation time. Data were corrected for DMSO excluded volume effects. All data were double-referenced for blank injections and reference surface using standard processing procedures and data processing and kinetic fitting were performed using Scrubber software, version 2.0c (BioLogic Software). Data were fitted using simple 1:1 binding model allowing for mass transport effects where appropriate.
For analysis of peptide binding, a Biacore 8k+ instrument was used with a CM5 chip (Cytiva). All experiments were carried out at 25° C. Anti-human IgG (Fc) antibody (Cytiva) was immobilized on all flow cells by standard amine coupling chemistry. The running buffer was HBS-N(Cytiva, 10 mM HEPES, 0.15 M NaCl, pH 7.4) and the flow rate was 10 μL/min. The carboxymethyl dextran surface was activated with a 1:1 ratio of 0.4 M 1-ethyl-3-(3-dimethylaminopropyl) carbodiimide hydrochloride (EDC)/0.1 M N-hydroxy succinimide (NHS) (Cytiva) for 420s. […] Residual activated groups were blocked with a 420 s injection of 1 M ethanolamine (pH 8.5). The final surface density was 3000-5000 RU. Fc-tagged human NKp46 was diluted to 0.1 μM in HBS-N and was captured on flow cell 2 only of the sensor chip at a flow rate of 10 μL/min to 500-1000 RU. The buffer was then changed to PBS-P+(Cytiva) supplemented with 2% DMSO. […] The flow rate was 50 μL/min with 60 s association and 400 s dissociation. Data were corrected for DMSO volume exclusion effects. All data were double-referenced against blank injections and reference surface response using standard processing procedures. Data processing and kinetic fitting was performed using Biacore Insight Evaluation Software with Extended Screening and Characterization Extension (Cytiva). Data were fitted using steady state affinity 1:1 binding model to determine KD. Data were fitted using kinetic 1:1 binding model to determine kinetic constants where appropriate.

| Binder | Kd [µM] |
| --- | --- |
| Ac-CY[Cba]PDYLC[dK](Pent4ynoyl)DEYC-NH2 (linker 1-8-13 via TATA; SMILES C#CCCC(=O)NCCCC[C@H]1NC(=O)[C@@H]2CSCCC(=O)N3CN(CN(C3)C(=O)CCSC[C@H](NC(C)=O)C(=O)N[C@@H](Cc3ccc(O)cc3)C(=O)N[C@@H](CC3CCC3)C(=O)N3CCC[C@H]3C(=O)N[C@@H](CC(=O)O)C(=O)N[C@@H](Cc3ccc(O)cc3)C(=O)N[C@@H](CC(C)C)C(=O)N2)C(=O)CCSC[C@@H](C(N)=O)NC(=O)[C@H](Cc2ccc(O)cc2)NC(=O)[C@H](CCC(=O)O)NC(=O)[C@H](CC(=O)O)NC1=O, scaffold TATA) [BCY19684] | 0.0094 |
| ACYLPDYLCGDEYCA-NH2 (linker 2-9-14 via TATA; also: scaffold: TATA, TATB or TBMT, scaffold TATA) [BCY18470] | 0.022 |
| Ac-CY[Cba][NMeA]DYLC[dA]DEYC-NH2 (linker 1-8-13 via TATA; SMILES CC(=O)N[C@H]1CSCCC(=O)N2CN3CN(C2)C(=O)CCSC[C@H](NC(=O)[C@H](CC(C)C)NC(=O)[C@H](Cc2ccc(O)cc2)NC(=O)[C@H](CC(=O)O)NC(=O)[C@H](C)N(C)C(=O)[C@H](CC2CCC2)NC(=O)[C@H](Cc2ccc(O)cc2)NC1=O)C(=O)N[C@H](C)C(=O)N[C@@H](CC(=O)O)C(=O)N[C@@H](CCC(=O)O)C(=O)N[C@@H](Cc1ccc(O)cc1)C(=O)N[C@H](C(N)=O)CSCCC3=O, scaffold TATA) [BCY18440] | 0.149 |
| Ac-CY[Cba]PDYLC[dNle]DEYC-NH2 (linker 1-8-13 via TATA; SMILES CCCC[C@H]1NC(=O)[C@@H]2CSCCC(=O)N3CN(CN(C3)C(=O)CCSC[C@H](NC(C)=O)C(=O)N[C@@H](Cc3ccc(O)cc3)C(=O)N[C@@H](CC3CCC3)C(=O)N3CCC[C@H]3C(=O)N[C@@H](CC(=O)O)C(=O)N[C@@H](Cc3ccc(O)cc3)C(=O)N[C@@H](CC(C)C)C(=O)N2)C(=O)CCSC[C@@H](C(N)=O)NC(=O)[C@H](Cc2ccc(O)cc2)NC(=O)[C@H](CCC(=O)O)NC(=O)[C@H](CC(=O)O)NC1=O, scaffold TATA) [BCY19685] | 0.01 |
| Ac-CY[Cba]PD[Tyr(2-F)]LC[dA]DEYC-NH2 (linker 1-8-13 via TATA, scaffold TATA) [BCY19687] | 0.028 |
| ACNLQAPCMLTGK[Chg]CA-NH2 (linker 2-8-15 via TATA; N-terminus assumed; SMILES CSCC[C@@H]1NC(=O)[C@@H]2CSCCC(=O)N3CN(CN(C3)C(=O)CCSC[C@@H](C(=O)N[C@@H](C)C(N)=O)NC(=O)[C@H](C3CCCCC3)NC(=O)[C@H](CCCCN)NC(=O)CNC(=O)[C@H]([C@@H](C)O)NC(=O)[C@H](CC(C)C)NC1=O)C(=O)CCSC[C@H](NC(=O)[C@H](C)N)C(=O)N[C@@H](CC(N)=O)C(=O)N[C@@H](CC(C)C)C(=O)N[C@@H](CCC(N)=O)C(=O)N[C@@H](C)C(=O)N1CCC[C@H]1C(=O)N2, scaffold TATA) [BCY18326] | 2.78 |
| Ac-CN[Cba]PDYLC[dA]DEYC-NH2 (linker 1-8-13 via TATA; SMILES CC(=O)N[C@H]1CSCCC(=O)N2CN3CN(C2)C(=O)CCSC[C@H](NC(=O)[C@H](CC(C)C)NC(=O)[C@H](Cc2ccc(O)cc2)NC(=O)[C@H](CC(=O)O)NC(=O)[C@@H]2CCCN2C(=O)[C@H](CC2CCC2)NC(=O)[C@H](CC(N)=O)NC1=O)C(=O)N[C@H](C)C(=O)N[C@@H](CC(=O)O)C(=O)N[C@@H](CCC(=O)O)C(=O)N[C@@H](Cc1ccc(O)cc1)C(=O)N[C@H](C(N)=O)CSCCC3=O, scaffold TATA) [BCY18435] | 0.091 |
| Ac-CY[Cba]PDYLC[dF]DEYC-NH2 (linker 1-8-13 via TATA, scaffold TATA) [BCY19682] | 0.009 |
| Ac-CY[Cba]PDYLC[dV]DEYC-NH2 (linker 1-8-13 via TATA, scaffold TATA) [BCY18443] | 0.0063 |
| Ac-CY[Cba]PQYLC[dA]DEYC-NH2 (linker 1-8-13 via TATA; SMILES CC(=O)N[C@H]1CSCCC(=O)N2CN3CN(C2)C(=O)CCSC[C@H](NC(=O)[C@H](CC(C)C)NC(=O)[C@H](Cc2ccc(O)cc2)NC(=O)[C@H](CCC(N)=O)NC(=O)[C@@H]2CCCN2C(=O)[C@H](CC2CCC2)NC(=O)[C@H](Cc2ccc(O)cc2)NC1=O)C(=O)N[C@H](C)C(=O)N[C@@H](CC(=O)O)C(=O)N[C@@H](CCC(=O)O)C(=O)N[C@@H](Cc1ccc(O)cc1)C(=O)N[C@H](C(N)=O)CSCCC3=O, scaffold TATA) [BCY18442] | 0.0071 |
| Ac-CY[Cba]PNYLC[dA]DEYC-NH2 (linker 1-8-13 via TATA; SMILES CC(=O)N[C@H]1CSCCC(=O)N2CN3CN(C2)C(=O)CCSC[C@H](NC(=O)[C@H](CC(C)C)NC(=O)[C@H](Cc2ccc(O)cc2)NC(=O)[C@H](CC(N)=O)NC(=O)[C@@H]2CCCN2C(=O)[C@H](CC2CCC2)NC(=O)[C@H](Cc2ccc(O)cc2)NC1=O)C(=O)N[C@H](C)C(=O)N[C@@H](CC(=O)O)C(=O)N[C@@H](CCC(=O)O)C(=O)N[C@@H](Cc1ccc(O)cc1)C(=O)N[C@H](C(N)=O)CSCCC3=O, scaffold TATA) [BCY18441] | 0.0077 |
| Ac-C[4Pal][Cba]PDYLC[dA]DEYC-NH2 (linker 1-8-13 via TATA; SMILES CC(=O)N[C@H]1CSCCC(=O)N2CN3CN(C2)C(=O)CCSC[C@H](NC(=O)[C@H](CC(C)C)NC(=O)[C@H](Cc2ccc(O)cc2)NC(=O)[C@H](CC(=O)O)NC(=O)[C@@H]2CCCN2C(=O)[C@H](CC2CCC2)NC(=O)[C@H](Cc2ccncc2)NC1=O)C(=O)N[C@H](C)C(=O)N[C@@H](CC(=O)O)C(=O)N[C@@H](CCC(=O)O)C(=O)N[C@@H](Cc1ccc(O)cc1)C(=O)N[C@H](C(N)=O)CSCCC3=O, scaffold TATA) [BCY18437] | 0.047 |
| ACNLQAPCMLTG[hArg]VCA-NH2 (linker 2-8-15 via TATA; N-terminus assumed; SMILES CSCC[C@@H]1NC(=O)[C@@H]2CSCCC(=O)N3CN(CN(C3)C(=O)CCSC[C@@H](C(=O)N[C@@H](C)C(N)=O)NC(=O)[C@H](C(C)C)NC(=O)[C@H](CCCCNC(=N)N)NC(=O)CNC(=O)[C@H]([C@@H](C)O)NC(=O)[C@H](CC(C)C)NC1=O)C(=O)CCSC[C@H](NC(=O)[C@H](C)N)C(=O)N[C@@H](CC(N)=O)C(=O)N[C@@H](CC(C)C)C(=O)N[C@@H](CCC(N)=O)C(=O)N[C@@H](C)C(=O)N1CCC[C@H]1C(=O)N2, scaffold TATA) [BCY18328] | 0.887 |
| Ac-CY[Cba]PDYLC[dCha]DEYC-NH2 (linker 1-8-13 via TATA; SMILES CC(=O)N[C@H]1CSCCC(=O)N2CN3CN(C2)C(=O)CCSC[C@H](NC(=O)[C@H](CC(C)C)NC(=O)[C@H](Cc2ccc(O)cc2)NC(=O)[C@H](CC(=O)O)NC(=O)[C@@H]2CCCN2C(=O)[C@H](CC2CCC2)NC(=O)[C@H](Cc2ccc(O)cc2)NC1=O)C(=O)N[C@H](CC1CCCCC1)C(=O)N[C@@H](CC(=O)O)C(=O)N[C@@H](CCC(=O)O)C(=O)N[C@@H](Cc1ccc(O)cc1)C(=O)N[C@H](C(N)=O)CSCCC3=O, scaffold TATA) [BCY19683] | 0.01 |
| Ac-CY[Cba]PDYLC[dNva]DEYC-NH2 (linker 1-8-13 via TATA; SMILES CCC[C@H]1NC(=O)[C@@H]2CSCCC(=O)N3CN(CN(C3)C(=O)CCSC[C@H](NC(C)=O)C(=O)N[C@@H](Cc3ccc(O)cc3)C(=O)N[C@@H](CC3CCC3)C(=O)N3CCC[C@H]3C(=O)N[C@@H](CC(=O)O)C(=O)N[C@@H](Cc3ccc(O)cc3)C(=O)N[C@@H](CC(C)C)C(=O)N2)C(=O)CCSC[C@@H](C(N)=O)NC(=O)[C@H](Cc2ccc(O)cc2)NC(=O)[C@H](CCC(=O)O)NC(=O)[C@H](CC(=O)O)NC1=O, scaffold TATA) [BCY18444] | 0.0039 |
| Ac-CY[Cba]PD[Dopa]LC[dA]DEYC-NH2 (linker 1-8-13 via TATA; SMILES CC(=O)N[C@H]1CSCCC(=O)N2CN3CN(C2)C(=O)CCSC[C@H](NC(=O)[C@H](CC(C)C)NC(=O)[C@H](Cc2ccc(O)c(O)c2)NC(=O)[C@H](CC(=O)O)NC(=O)[C@@H]2CCCN2C(=O)[C@H](CC2CCC2)NC(=O)[C@H](Cc2ccc(O)cc2)NC1=O)C(=O)N[C@H](C)C(=O)N[C@@H](CC(=O)O)C(=O)N[C@@H](CCC(=O)O)C(=O)N[C@@H](Cc1ccc(O)cc1)C(=O)N[C@H](C(N)=O)CSCCC3=O, scaffold TATA) [BCY19686] | 0.044 |
